Data reported in patent US20100189695.

Tests used:
NFATc4 = target: T1, NFATc4
T1 sequence (Q14934 1-902, species assumed, looked up): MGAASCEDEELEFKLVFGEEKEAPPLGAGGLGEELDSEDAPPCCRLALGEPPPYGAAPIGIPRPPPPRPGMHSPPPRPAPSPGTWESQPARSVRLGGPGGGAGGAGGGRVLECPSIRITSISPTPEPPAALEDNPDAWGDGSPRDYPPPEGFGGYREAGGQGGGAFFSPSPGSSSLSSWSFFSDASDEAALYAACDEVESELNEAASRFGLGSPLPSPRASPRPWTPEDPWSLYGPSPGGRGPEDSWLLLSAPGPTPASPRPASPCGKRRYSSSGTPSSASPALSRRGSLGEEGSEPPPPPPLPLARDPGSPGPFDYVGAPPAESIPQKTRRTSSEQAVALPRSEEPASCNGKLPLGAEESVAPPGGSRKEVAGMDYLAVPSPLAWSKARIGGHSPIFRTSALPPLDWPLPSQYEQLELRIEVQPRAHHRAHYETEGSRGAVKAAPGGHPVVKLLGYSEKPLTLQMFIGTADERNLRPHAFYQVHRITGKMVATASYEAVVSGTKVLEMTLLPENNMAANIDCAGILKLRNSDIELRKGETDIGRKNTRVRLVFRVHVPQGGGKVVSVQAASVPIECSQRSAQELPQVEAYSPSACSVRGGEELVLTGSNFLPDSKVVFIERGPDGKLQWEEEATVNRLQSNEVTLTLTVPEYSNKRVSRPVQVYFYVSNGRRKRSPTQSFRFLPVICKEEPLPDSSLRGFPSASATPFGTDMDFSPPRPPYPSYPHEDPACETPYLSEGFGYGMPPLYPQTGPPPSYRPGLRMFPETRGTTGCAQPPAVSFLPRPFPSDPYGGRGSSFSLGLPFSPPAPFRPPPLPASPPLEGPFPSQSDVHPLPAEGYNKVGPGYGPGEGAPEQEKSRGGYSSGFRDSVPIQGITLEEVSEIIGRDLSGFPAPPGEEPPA

[1] = target: Rac1 (murine BMDM cells), P63001
[2] = target: Tau protein (in bone marrow derived macrophages), P10637
Sequence of Tau protein (in bone marrow derived macrophages), P10637 (P10637 whole entry, looked up): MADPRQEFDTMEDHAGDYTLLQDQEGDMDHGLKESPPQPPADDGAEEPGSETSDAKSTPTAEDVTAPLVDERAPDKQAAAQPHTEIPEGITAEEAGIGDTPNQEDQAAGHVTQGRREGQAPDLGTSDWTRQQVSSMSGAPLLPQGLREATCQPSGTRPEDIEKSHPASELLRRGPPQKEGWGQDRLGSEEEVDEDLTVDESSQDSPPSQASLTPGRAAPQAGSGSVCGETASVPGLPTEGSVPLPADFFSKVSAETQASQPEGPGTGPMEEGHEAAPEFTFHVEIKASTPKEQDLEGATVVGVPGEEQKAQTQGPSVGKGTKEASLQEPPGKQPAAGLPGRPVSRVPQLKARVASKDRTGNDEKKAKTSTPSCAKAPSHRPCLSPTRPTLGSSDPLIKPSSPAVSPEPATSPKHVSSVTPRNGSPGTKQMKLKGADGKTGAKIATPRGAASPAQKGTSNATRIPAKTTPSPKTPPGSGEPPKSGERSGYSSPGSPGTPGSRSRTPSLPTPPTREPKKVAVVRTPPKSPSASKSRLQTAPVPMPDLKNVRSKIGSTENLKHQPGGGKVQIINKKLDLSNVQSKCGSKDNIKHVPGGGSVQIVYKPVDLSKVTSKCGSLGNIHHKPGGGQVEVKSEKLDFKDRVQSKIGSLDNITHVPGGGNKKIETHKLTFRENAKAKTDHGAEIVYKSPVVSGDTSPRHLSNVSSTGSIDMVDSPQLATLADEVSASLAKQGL

B1: murine IRAK-1 (endogenous, wild type BMDM cells) (protein)
chain: MAGGPGPGEPVVPGAQHFLYEVPPWVMCRFYKVMDALEPADWCQFAALIVRDQTELRLCERSEQRTASVLWPWINRNARVADLVHILTHLQLLRARDIITAWHPPAPVVPPSTAAPRPSSISAGSEAGDWSPRKLQSSASTFLSPAFPGSQTHSESELLQVPLPVSLGPPLPSSAPSSTKSSPESPVSGLQRAHPSPFCWPFCEISQGTCNFSEELRIGEGGFGCVYRAVMRNTTYAVKRLKEEADLEWTMVKQSFLTEVEQLSRFRHPNIVDFAGYCAESGLYCLVYGFLPNGSLEDQLHLQTQACSPLSWPQRLDILLGTARAIQFLHQDSPSLIHGDIKSSNVLLDERLMPKLGDFGLARFSRFAGAKASQSSTVARTSTVRGTLAYLPEEYIKTGRLAVDTDTFSFGVVILETLAGQRAVRTQGAKTKYLKDLIEDEAEEAGVTLKSTQPTLWVGVATDAWAAPIAAQIYKKHLDSRPGPCPPQLGLALAQLACCCMHRRAKKRPPMTQVYKRLEGLQAGPPWELEVAGHGSPSPQENSYMSTTGSAQSGDEPWQPLVVTTRAPAQAAQQLQRSPNQPVESDESVPGLSATLHSWHLTPGSHPSPASFREASCTQGGTTRESSVRSSPGFQPTTMEGSPTGSSSLLSSEPPQIIINPARQKMVQKLALYEEGVLDSLQLLSSGFFPGLDLEPEKSQGPEESDEFQS
B1 was tested, and the “phosphorylated NFATc4 (p-NFATc4) by Western blot” value (NFATc4) was “p-NFATc4 was found in the wild type cells (Panel B, lanes 1-3) whereas significantly less was found in the IRAK-1 deficient cells”, the “Rac1 activity (PBD pull down assay) after LPS treatment for 5 min” value [1] was “relative Rac1 activity is significantly higher in LPS-induced wild type macrophages and not in IRAK-1 deficient macrophages” and the “phosphorylated Tau (PHF-Tau) by Western blot after BLP (Pam3CSK4) treatment” value [2] was “stimulation of wild type cells led to increased Tau phosphorylation. In contrast, Tau phosphorylation is ablated in IRAK-1 deficient cells”.
